The target of experiment [1] is T1, cyclo(CGHHQKG) (SEQ ID NO: 12) conjugated to BSA (also: conjugated to BSA).
T1 construct: Synthetic cyclic peptide (CPC Scientific) holding HHQK of A-beta; also called Cyclic Peptide; cyclopeptide
T1 peptide: cyclo(CGHHQKG)
Nature of the experiment: ProteOn biosensor; antibody amine-coupled to GLH chip, Cyclo-BSA dilutions 9 nM to 111 pM. The method, then: Cyclo-BSA 3-fold dilutions were used from 9 nM to 111 pM. Assay buffer was PBS-E+0.05% Tween+10 mg/ml BSA.

The target in experiment [2] is T2, commercially-prepared stable A-beta42 Oligomers (SynAging SAS) (human).
T2 construct: Bought oligomer preparation; also called AbO (SynAging); SynAging AbO
Put plainly: ProteOn biosensor; antibody captured or amine-coupled on GLM chip, AbO dilutions 1 uM to 12.3 nM. The method, then:
AbO 3 fold-dilutions were used: 1 uM, 0.33 uM, 0.11 uM, 37 nM, 12.3 nM. Assay buffer was PBS-E+Tween 20+2 mg/ml BSA.

In experiment [3] the target is T3, A-beta42 Oligomer (synthetic, prepared in F12 medium) (human).
T3 construct: Non-covalent oligomer of recombinant A-beta42 (California Peptide), 100 µM in F12 medium, 24 h to 7 days at 4 °C; also called Ab42 Oligomer; A-beta 1-42 oligomers
Nature of the experiment: SPR; purified antibody immobilized, A-beta preparation flowed over.

In another experiment the target is T4, A-beta42 Monomer (human).
T4 construct: Recombinant A-beta42 peptide (California Peptide), HFIP-treated, in DMSO then water, used at once; also called Ab42 Monomer; A-beta 1-42 monomer
Described as above.

Experiment [4] has as its target T1, cyclo(CGHHQKG) (SEQ ID NO: 12) …. Nature of the experiment: single cycle Biacore analysis. The protocol:
The fully humanized antibodies were prepared using Composite Human Antibody™ technology. The humanized variable region genes were cloned into vectors encoding a human IgG4 (S241P hinge variant) heavy chain constant domain and a human kappa light chain constant domain. Chimeric and humanized antibodies were transiently expressed in CHO cells and Protein A purified and tested.
Binding was determined using single cycle Biacore analysis. Antibodies were analysed in two separate experiments.
On the technique in general: SPR reads the build-up and loss of mass on a sensor chip optically.

Experiment [5] shares this target. Put plainly: SPR; immobilized antibody pre-exposed to cyclic peptide.

T3 sequence (peptide, as listed by the source): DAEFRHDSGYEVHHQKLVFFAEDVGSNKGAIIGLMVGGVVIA
T2 sequence (peptide, as listed by the source): as above
T4 sequence (peptide, as listed by the source): as above

B1: Recombinant 301-17 IgG2a (antibody)
heavy: QVQLQQPGAELVKPGASVKMSCKASGYSFTSYWINWVKQRPGQGLEWIGDVHPGRGVSTYNAKFKSKATLTLDTSSSTAYMQLSSLTSEDSAVYYCSRSHGNTYWFFDVWGAGTTVTVSSAKTTAPSVYPLAPVCGDTTGSSVTLGCLVKGYFPEPVTLTWNSGSLSSGVHTFPAVLQSDLYTLSSSVTVTSSTWPSQSITCNVAHPASSTKVDKKIEPRGPTIKPCPPCKCPAPNLLGGPSVFIFPPKIKDVLMISLSPIVTCVVVDVSEDDPDVQISWFVNNVEVHTAQTQTHREDYNSTLRVVSALPIQHQDWMSGKEFKCKVNNKDLPAPIERTISKPKGSVRAPQVYVLPPPEEEMTKKQVTLTCMVTDFMPEDIYVEWTNNGKTELNYKNTEPVLDSDGSYFMYSKLRVEKKNWVERNSYSCSVVHEGLHNHHTTKSFSRTPGK
light: DVLMTQTPLSLPVSLGDQASISCRSSQSIVHSNGNTYLEWYLQKPGQSPKLLIYKVSNRFSGVPDRFSGSGSGTDFTLKISRVEAEDLGVYYCFQGSHVPFTFGSGTKLEIKRADAAPTVSIFPPSSEQLTSGGASVVCFLNNFYPKDINVKWKIDGSERQNGVLNSWTDQDSKDSTYSMSSTLTLTKDEYERHNSYTCEATHKTSTSPIVKSFNRNEC
In the case of B1, the values for the dissociation constant (Kd) in experiment [1] and in experiment [2] were ~0.017 nM and 16.2 to 19.5 nM, respectively.

B2: 301-17 (hybridoma-purified 301-17 IgG3) (antibody, V domains shown)
VH: QVQLQQPGAELVKPGASVKMSCKASGYSFTSYWINWVKQRPGQGLEWIGDVHPGRGVSTYNAKFKSKATLTLDTSSSTAYMQLSSLTSEDSAVYYCSRSHGNTYWFFDVWGAGTTVTVSSATTTAPS
VL: DVLMTQTPLSLPVSLGDQASISCRSSQSIVHSNGNTYLEWYLQKPGQSPKLLIYKVSNRFSGVPDRFSGSGSGTDFTLKISRVEAEDLGVYYCFQGSHVPFTFGSGTKLEIKRADA
notes: Mouse monoclonal from hybridoma, IgG3 / kappa; also called mu301-17
In the case of B2, the “binding response (RU)” value in experiment [3] was 148 RU; with A-beta42 Monomer, -27.1 RU. Besides, the values for the Kd in experiment [2] and in experiment [4] were ~26.9 nM and 0.4 nM, respectively.

B3: 301-11 (antibody, V domains shown)
VH: EVQLVESGGGLVKPGGSLKLSCAASGFTFSDYYMYWVRQTPEKRLEWVATISDGGSYTSYPDSVKGRFTISRDNAKNNLYLQMSSLRSEDTAMYYCARDYYGSSSYTSGFAYWGQGTLVTVSA
VL: DIVMSQSPSSLAVSTGEKVTMSCKSSQSLLNSRTRKNYLAWYQQKPGQSPKLLIYWASTRESGVPDRFTGSGSGTDFTLTISSVQAEDLAVYYCKQSYNLYTFGGGTKLEIK
notes: Mouse monoclonal from hybridoma, IgG3 / kappa, raised against cyclo(CGHHQKG)-KLH
Regarding B3, the results for the “binding response (RU)” value (in experiment [3]; in the experiment with A-beta42 Monomer) were -2.8 RU and -14.1 RU, respectively.

B4: 301-17 chimeric antibody (VH0 Vk0, human IgG4) (antibody, V domains shown)
VH: QVQLQQPGAELVKPGASVKMSCKASGYSFTSYWINWVKQRPGQGLEWIGDVHPGRGVSTYNAKFKSKATLTLDTSSSTAYMQLSSLTSEDSAVYYCSRSHGNTYWFFDVWGAGTTVTVSS
VL: DVLMTQTPLSLPVSLGDQASISCRSSQSIVHSNGNTYLEWYLQKPGQSPKLLIYKVSNRFSGVPDRFSGSGSGTDFTLKISRVEAEDLGVYYCFQGSHVPFTFGSGTKLEIK
notes: expressed in CHO cells; not expressly tied to the chimeric one; also called V0H0 and V0k0
Consider B4, for which, in experiment [4], the Kd was ~0.02 nM.

B5: Humanized antibody of 301-17 (VH2 Vk5), IgG4 isotype (S241P hinge mutation) (antibody, V domains shown)
VH: QVQLVQSGAEVKKPGASVKMSCKASGYSFTSYWINWVKQRPGQGLEWIGDVHPGRGVSTYNAKFKSRATLTLDTSISTAYMELSSLRSEDTAVYYCSRSHGNTYWFFDVWGQGTTVTVSS
VL: DVLMTQSPLSLPVTLGQPASISCRSSQSIVHSNGNTYLEWYQQRPGQSPRLLIYKVSNRFSGVPDRFSGSGSGTDFTLKISRVEAEDVGVYYCFQGSHVPFTFGQGTKLEIKR
notes: also called hu301-17
With B5, the binding result in experiment [5] is listed as “binds”.

For orientation: Kd means the concentration at which binding is half-saturated. Higher therefore signals a looser complex.
